T1: Human BCMA (human, UniProt Q02223 1-54, limits assumed)
T1 construct: also called huBCMA; B-cell maturation antigen
T1 sequence (looked up): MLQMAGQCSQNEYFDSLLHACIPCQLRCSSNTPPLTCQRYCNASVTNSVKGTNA


Legend:
Human BCMA = biological target: T1, Human BCMA; assay: SPR, IgG immobilised, human BCMA analyte
Method: (§1) All experiments were performed on a Bio-Rad Proteon XPR36 surface Plasmon resonance biosensor (Bio-Rad, Hercules, Calif.). […] The analysis temperature for the immobilization was 25° C. and the running buffer was HBS-T+(10 mM HEPES, 150 mM NaCl, 0.05% Tween-20, pH 7.4). Channels were activated in the analyte (horizontal) direction by injecting a mixture of 1 mM ECD and 0.25 mM NHS for 3 minutes at a flow rate of 30 μL/min. IgGs were immobilized on the activated spots by injecting them in the ligand (vertical) direction at 20 μg/mL in 10 mM Acetate pH 4.5 buffer for 1.5 minutes at […]. The activated surfaces were blocked by injecting 1M ethanolamine, pH 8.5 in the analyte direction for 3 minutes at 30 μL/min.
(§2) The analysis temperature for the BCMA binding analysis was 37° C. or 25° C. in a running buffer of HBS-T+, supplemented with 1 mg/mL BSA. A kinetic titration method was employed for the interaction analysis as described in Abdiche, et al. Human BCMA (huBCMA) or cynomolgus monkey BCMA (cyBCMA) analyte was injected in the analyte direction using a series of injections from low to high concentration. The concentrations used were 0.08 nM, 0.4 nM, 2 nM, 10 nM and 50 nM (a 5-membered series, with a 5-fold dilution factor and top concentration of 50 nM). The association time for a given analyte dilution was two minutes. Immediately after the 50 nM BCMA injection, dissociation was monitored for 2 hours.
(§3) The sensorgrams were double-referenced and fit to a 1:1 Langmuir with mass transport kinetic titration model in BIAevaluation Software version 4.1.1 (GE Lifesciences, Piscataway, N.J.).

Cynomolgus monkey BCMA = biological target: T2, Cynomolgus monkey BCMA (cynomolgus monkey); assay: SPR, IgG immobilised, cyno BCMA analyte
T2 construct: Soluble analyte in SPR; also called cyBCMA; Cyno BCMA
Method: as §1, §2, §3

| Binder | Kd (Human BCMA) | koff (Human BCMA) | kon (Human BCMA) | Kd (Cynomolgus monkey BCMA) | koff (Cynomolgus monkey BCMA) | kon (Cynomolgus monkey BCMA) |
| --- | --- | --- | --- | --- | --- | --- |
| A02_Rd4_6nM_C23 (antibody, V domains shown, IgG) VH: EVQLLESGGGLVQPGGSLRLSCAASGFTFSSYAMNWVRQAPGKGLEWVSAISDSGGSGWYADSVKGRFTISRDNSKNTLYLQMNSLRAEDTAVYYCARYWPMSLWGQGTLVTVSS VL: EIVLTQSPGTLSLSPGERATLSCRASQSVSVEYLAWYQQKPGQAPRLLMYDASIRATGIPDRFSGSGSGTDFTLTISRLEPEDFAVYYCQQYARWPLTFGQGTKVEIK | 0.021 nM | 0.000255 s⁻¹ | 1.22e+07 M⁻¹ s⁻¹ | 0.157 nM | 0.000414 s⁻¹ | 2.63e+06 M⁻¹ s⁻¹ |
| C01_Rd4_6nM_C09 (antibody, V domains shown, IgG) VH: EVQLLESGGGLVQPGGSLRLSCAASGFTFSSYPMSWVRQAPGKGLEWVSATVGSGGSIGYADSVKGRFTISRDNSKNTLYLQMNSLRAEDTAVYYCARYWPMDSWGQGTLVTVSS VL: EIVLTQSPGTLSLSPGERATLSCACSQSVSSTYLAWYQQKPGQAPRLLIYDASSRAPGIPDRFSGSGSGTDFTLTISRLEPEDFAVYYCQQYSAWPLTFGQGTKVEIK | 0.811 nM | 0.0128 s⁻¹ | 1.58e+07 M⁻¹ s⁻¹ | 2.33 nM | 0.00868 s⁻¹ | 3.73e+06 M⁻¹ s⁻¹ |
| C01_Rd4_6nM_C24 (antibody, V domains shown, IgG) VH: EVQLLESGGGLVQPGGSLRLSCAASGFTFSSYPMSWVRQAPGKGLEWVSAIGGSGGSLPYADSVKGRFTISRDNSKNTLYLQMNSLRAEDTAVYYCARYWPMDSWGQGTLVTVSS VL: EIVLTQSPGTLSLSPGERATLSCRASQSVSPEYLAWYQQKPGQAPRLLIYDASSRAPGIPDRFSGSGSGTDFTLTISRLEPEDFAVYYCQQYSVWPLTFGQGTKVEIK | 0.467 nM | 0.00348 s⁻¹ | 7.47e+06 M⁻¹ s⁻¹ | 0.281 nM | 0.000891 s⁻¹ | 3.17e+06 M⁻¹ s⁻¹ |
| C01_Rd4_0.6nM_C16 (antibody, V domains shown, IgG) VH: EVQLLESGGGLVQPGGSLRLSCAASGFTFSSYPMSWVRQAPGKGLEWVSAIGGSGGSLPYADSVKGRFTISRDNSKNTLYLQMNSLRAEDTAVYYCARYWPMDSWGQGTLVTVSS VL: EIVLTQSPGTLSLSPGERATLSCRASQSVSSTYLAWYQQKPGQAPRLLIYDASSRAPGIPDRFSGSGSGTDFTLTISRLEPEDFAVYYCQQYSSWPLTFGQGTKVEIK | 0.407 nM | 0.0063 s⁻¹ | 1.55e+07 M⁻¹ s⁻¹ | 0.939 nM | 0.00464 s⁻¹ | 4.95e+06 M⁻¹ s⁻¹ |
| A02_Rd4_6nM_C26 (antibody, V domains shown, IgG) VH: EVQLLESGGGLVQPGGSLRLSCAASGFTFSSYAMNWVRQAPGKGLEWVSAISDSGGSTYYADSVKGRFTISRDNSKNTLYLQMNSLRAEDTAVYYCARYWPMSLWGQGTLVTVSS VL: EIVLTQSPGTLSLSPGERATLSCRASQSVSSLYLAWYQQKPGQAPRLLMYDASIRATGIPDRFSGSGSGTDFTLTISRLEPEDFAVYYCQQYQVWPLTFGQGTKVEIK | 0.033 nM | 0.000139 s⁻¹ | 4.26e+06 M⁻¹ s⁻¹ | 0.203 nM | 0.000448 s⁻¹ | 2.21e+06 M⁻¹ s⁻¹ |
| C01_Rd4_0.6nM_C06 (antibody, V domains shown, IgG) VH: EVQLLESGGGLVQPGGSLRLSCAASGFTFSSYPMSWVRQAPGKGLEWVSAIGGSGGSLPYADSVKGRFTISRDNSKNTLYLQMNSLRAEDTAVYYCARYWPMDSWGQGTLVTVSS VL: EIVLTQSPGTLSLSPGERATLSCRASEAVPSTYLAWYQQKPGQAPRLLIYDASSRAPGIPDRFSGSGSGTDFTLTISRLEPEDFAVYYCQQYSAFPLTFGQGTKVEIK | 0.847 nM | 0.0154 s⁻¹ | 1.82e+07 M⁻¹ s⁻¹ | 1.95 nM | 0.0121 s⁻¹ | 6.22e+06 M⁻¹ s⁻¹ |
| C01_Rd4_0.6nM_C03 (antibody, V domains shown, IgG) VH: EVQLLESGGGLVQPGGSLRLSCAASGFTFSSYPMSWVRQAPGKGLEWVSAIGGSGGSLPYADSVKGRFTISRDNSKNTLYLQMNSLRAEDTAVYYCARYWPMDSWGQGTLVTVSS VL: EIVLTQSPGTLSLSPGERATLSCRASCDVSSTYLAWYQQKPGQAPRLLIYDASSRAPGIPDRFSGSGSGTDFTLTISRLEPEDFAVYYCQQYMRSPLTFGQGTKVEIK | 0.964 nM | 0.015 s⁻¹ | 1.55e+07 M⁻¹ s⁻¹ | 2.53 nM | 0.0119 s⁻¹ | 4.72e+06 M⁻¹ s⁻¹ |

Reference: patent US20160297884A1 (Pfizer, published 2016)
